# Source: patent US20150344570A1 (published 2015)
# T1: FcγRIIb (human, UniProt P31994 43-217)
# T1 construct: extracellular domain; also called FcgRIIb; 2b
# T1 sequence (looked up): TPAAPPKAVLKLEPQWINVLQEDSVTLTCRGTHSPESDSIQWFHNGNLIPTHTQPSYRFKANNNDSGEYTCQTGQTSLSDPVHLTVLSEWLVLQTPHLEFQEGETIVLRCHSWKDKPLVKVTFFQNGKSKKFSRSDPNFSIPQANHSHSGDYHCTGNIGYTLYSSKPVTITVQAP
# T2: FcγRIIb, extracellular domain with C-terminal His tag (human, UniProt P31994 43-217)
# T2 construct: extracellular domain; also called 2b; FcgRIIb; not shown: His tag at the C terminus
# T2 sequence (looked up): T1 sequence (looked up)
# T3: FcγRIIa R (FcγRIIa allotype with Arg at position 131), extracellular domain with C-terminal His tag (human, UniProt P12318 34-217)
# T3 construct: extracellular domain; made in FreeStyle293 cells; analyte in the Biacore assay; also called FcγRIIa type R; 2aR
# T3 sequence (looked up): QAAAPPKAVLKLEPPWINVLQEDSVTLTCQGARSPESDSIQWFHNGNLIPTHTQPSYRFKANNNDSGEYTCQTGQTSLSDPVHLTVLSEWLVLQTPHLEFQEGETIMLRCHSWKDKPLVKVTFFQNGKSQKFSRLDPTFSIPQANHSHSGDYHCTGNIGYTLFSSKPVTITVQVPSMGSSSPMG
# T4: FcγRIIb, extracellular domain with C-terminal His tag (human, UniProt P31994 43-217)
# T4 construct: extracellular domain; made in FreeStyle293 cells; analyte in the Biacore assay; also called 2b; FcgRIIb
# T4 sequence (looked up): T1 sequence (looked up)
# B1: GpH7-A5/GpH7-B3 variant A327_07I/GpL16-k0 (antibody, human IgG1, kappa)
# heavy 1: not shown
# heavy 2: not shown
# light: DIVMTQSPLSLPVTPGEPASISCQASESLVHSNRNTYLHWYLQKPGQSPQLLIYKVSNRFSGVPDRFSGSGSGTDFTLKISRVEAEDVGVYYCSQNTHVPPTFGQGTKVEIERTVAAPSVFIFPPSDEQLKSGTASVVCLLNNFYPREAKVQWKVDNALQSGNSQESVTEQDSKDSTYSLSSTLTLSKADYEKHKVYACEVTHQGLSSPVTKSFNRGEC
# notes: mutation in the GpH7-B3 chain only; also called He Ab
# B2: GpH7-A5/GpH7-B3 variant L328_03V/GpL16-k0 (antibody, human IgG1, kappa)
# heavy 1: not shown
# heavy 2: not shown
# light: B1 light
# notes: as for B1
# B3: GpH7-A5/GpH7-B3 variant A327_09D/GpL16-k0 (antibody, human IgG1, kappa)
# heavy 1: not shown
# heavy 2: not shown
# light: B1 light
# notes: as for B1
# B4: GpH7-A5/GpH7-B3 variant A330_01G/GpL16-k0 (antibody, human IgG1, kappa)
# heavy 1: not shown
# heavy 2: not shown
# light: B1 light
# notes: as for B1
# B5: GpH7-A5/GpH7-B3 variant L328_04F/GpL16-k0 (antibody, human IgG1, kappa)
# heavy 1: not shown
# heavy 2: not shown
# light: B1 light
# notes: as for B1
# B6: GpH7-A5/GpH7-B3 variant L328_02A/GpL16-k0 (antibody, human IgG1, kappa)
# heavy 1: not shown
# heavy 2: not shown
# light: B1 light
# notes: as for B1
# B7: GpH7-A5/GpH7-B3 variant L328_07I/GpL16-k0 (antibody, human IgG1, kappa)
# heavy 1: not shown
# heavy 2: not shown
# light: B1 light
# notes: as for B1
# B8: GpH7-A5/GpH7-B3 variant A327_18N/GpL16-k0 (antibody, human IgG1, kappa)
# heavy 1: not shown
# heavy 2: not shown
# light: B1 light
# notes: as for B1
# B9: GpH7-A5/GpH7-B3 variant I332_04F/GpL16-k0 (antibody, human IgG1, kappa)
# heavy 1: not shown
# heavy 2: not shown
# light: B1 light
# notes: as for B1
# B10: GpH7-A5/GpH7-B3 variant A327_10E/GpL16-k0 (antibody, human IgG1, kappa)
# heavy 1: not shown
# heavy 2: not shown
# light: B1 light
# notes: as for B1
# B11: GpH7-A5/GpH7-B3 variant L328_06M/GpL16-k0 (antibody, human IgG1, kappa)
# heavy 1: not shown
# heavy 2: not shown
# light: B1 light
# notes: as for B1
# B12: GpH7-A5/GpH7-B3 variant K334_12R/GpL16-k0 (antibody, human IgG1, kappa)
# heavy 1: not shown
# heavy 2: not shown
# light: B1 light
# notes: as for B1
# B13: GpH7-A5/GpH7-B3 variant S267_11K/GpL16-k0 (antibody, human IgG1, kappa)
# heavy 1: not shown
# heavy 2: not shown
# light: B1 light
# notes: He Ab; alteration in one H chain only; also called He Ab
# B14: GpH7-A5/GpH7-B3 variant S267_12R/GpL16-k0 (antibody, human IgG1, kappa)
# heavy 1: not shown
# heavy 2: not shown
# light: B1 light
# notes: as for B13
# B15: GpH7-A5/GpH7-B3 variant Y296_14T/GpL16-k0 (antibody, human IgG1, kappa)
# heavy 1: not shown
# heavy 2: not shown
# light: B1 light
# notes: heterodimerized IgG1, mutation in one H chain only; also called He Ab
# B16: GpH7-A5/GpH7-B3 variant Y300_04F/GpL16-k0 (antibody, human IgG1, kappa)
# heavy 1: not shown
# heavy 2: not shown
# light: B1 light
# notes: as for B15
# B17: GpH7-A5/GpH7-B3 variant Y296_19Q/GpL16-k0 (antibody, human IgG1, kappa)
# heavy 1: not shown
# heavy 2: not shown
# light: B1 light
# notes: as for B15
# B18: GpH7-A5/GpH7-B3 variant Y300_18N/GpL16-k0 (antibody, human IgG1, kappa)
# heavy 1: not shown
# heavy 2: not shown
# light: B1 light
# notes: as for B15
# B19: GpH7-A5/GpH7-B3 variant Y296_16H/GpL16-k0 (antibody, human IgG1, kappa)
# heavy 1: not shown
# heavy 2: not shown
# light: B1 light
# notes: as for B15
# B20: GpH7-A5/GpH7-B3 variant Y296_18N/GpL16-k0 (antibody, human IgG1, kappa)
# heavy 1: not shown
# heavy 2: not shown
# light: B1 light
# notes: as for B15
# Biological target: T5, FcγRIIIa (human, UniProt P08637 17-208)
# T5 construct: extracellular domain; also called FcgRIIIa; 3a
# T5 sequence (P08637 17-208): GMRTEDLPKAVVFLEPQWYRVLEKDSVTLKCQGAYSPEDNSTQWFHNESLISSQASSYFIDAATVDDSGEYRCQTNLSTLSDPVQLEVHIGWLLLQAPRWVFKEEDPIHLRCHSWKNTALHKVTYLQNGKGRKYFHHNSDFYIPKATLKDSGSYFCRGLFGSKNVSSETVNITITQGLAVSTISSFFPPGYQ
# Test: SPR (Biacore), relative binding
row,He/Con_3a,Binder
1,42.4 % of GpH7-A5/GpH7-B3/GpL16-k0,B1
2,78.7 % of GpH7-A5/GpH7-B3/GpL16-k0,B2
3,83.7 % of GpH7-A5/GpH7-B3/GpL16-k0,B3
4,89.1 % of GpH7-A5/GpH7-B3/GpL16-k0,B4
5,79.3 % of GpH7-A5/GpH7-B3/GpL16-k0,B5
6,79.1 % of GpH7-A5/GpH7-B3/GpL16-k0,B6
7,84 % of GpH7-A5/GpH7-B3/GpL16-k0,B7
8,61.1 % of GpH7-A5/GpH7-B3/GpL16-k0,B8
9,97.6 % of GpH7-A5/GpH7-B3/GpL16-k0,B9
10,68.6 % of GpH7-A5/GpH7-B3/GpL16-k0,B10
11,78.6 % of GpH7-A5/GpH7-B3/GpL16-k0,B11
12,90.8 % of GpH7-A5/GpH7-B3/GpL16-k0,B12

# Biological target: T1, FcγRIIb
# Test: SPR (Biacore), relative binding
row,He/Con_2b,Binder
1,127 % of GpH7-A5/GpH7-B3/GpL16-k0,B1
2,126 % of GpH7-A5/GpH7-B3/GpL16-k0,B2
3,172 % of GpH7-A5/GpH7-B3/GpL16-k0,B3
4,104 % of GpH7-A5/GpH7-B3/GpL16-k0,B4
5,219 % of GpH7-A5/GpH7-B3/GpL16-k0,B5
6,144 % of GpH7-A5/GpH7-B3/GpL16-k0,B6
7,160 % of GpH7-A5/GpH7-B3/GpL16-k0,B7
8,113 % of GpH7-A5/GpH7-B3/GpL16-k0,B8
9,104 % of GpH7-A5/GpH7-B3/GpL16-k0,B9
10,140 % of GpH7-A5/GpH7-B3/GpL16-k0,B10
11,142 % of GpH7-A5/GpH7-B3/GpL16-k0,B11
12,111 % of GpH7-A5/GpH7-B3/GpL16-k0,B12

# Biological target: T2, FcγRIIb, extracellular domain with …
# Test: SPR (Biacore), relative binding, GpH7-A5/GpH7-B3/GpL16-k0 = 100
row,He/Con_2b,Binder
1,12.2 % of control,B13
2,11.3 % of control,B14

# Biological target: T3, FcγRIIa R (FcγRIIa allotype with Arg at …)
# Test: SPR (Biacore), antibody captured, FcγR analyte; vs GpH7-A5/GpH7-B3/GpL16-k0 = 100
# Description: (§1) The heterodimerized antibodies He Abs in which one of the H chains was introduced with an alteration were assayed for their binding activities to each activating FcγR and inhibitory FcγR according to the method described in Example 4. […] The activating FcγRs in FIGS. 26, 27, 28, and 29 are FcγRIa, FcγRIIa (R), FcγRIIa (H), and FcγRIIIa, respectively.
# (§2) Analysis of interaction between objective antibody and the FcγR was carried out using Biacore T100 (GE Healthcare). HBS-EP+ (GE Healthcare) was used as the running buffer, and the measurement temperature was set to 25° C. Chips produced by immobilizing the antigen peptide by the amine coupling method to a Series S Sencor Chip CM5 (GE Healthcare), or alternatively, chips produced by allowing preliminarily biotinylated antigen peptides to interact with and immobilize onto a Series S Sensor Chip SA (certified) (GE Healthcare) were used. Antibodies of interest were captured onto an antigen peptide-immobilized chip, and allowed to interact to each FcγR diluted with running buffer. To regenerate and repeatedly use the chip, the antibodies captured on the chip were washed off by reacting 10 mM glycine-HCl, pH 1.5.
row,He/Con_2aR,Binder
1,103 relative (HeCon Ab = 100),B15
2,108 relative (HeCon Ab = 100),B16
3,102 relative (HeCon Ab = 100),B17
4,100 relative (HeCon Ab = 100),B18
5,105 relative (HeCon Ab = 100),B19
6,104 relative (HeCon Ab = 100),B20

# Biological target: T4, FcγRIIb, extracellular domain with …
# Test: as above
# Description: as §1, §2
row,He/Con_2b,Binder
1,88.2 relative (HeCon Ab = 100),B15
2,94.8 relative (HeCon Ab = 100),B16
3,89.3 relative (HeCon Ab = 100),B17
4,82.7 relative (HeCon Ab = 100),B18
5,92.2 relative (HeCon Ab = 100),B19
6,91.5 relative (HeCon Ab = 100),B20
